Tested on: Nc1ncnc2c1ncn2[C@@H]1O[C@H](COP(=O)(O)OP(=O)(O)OP(=O)(O)O)[C@@H](O)[C@H]1O
Assay: purified protein
[1] = saturating taxol-stabilized MTs, no ATPγS, pH 7.2, 2 mM MgCl2

Substance | Km [1] [µM] | kcat [1] [s⁻¹] | Km (pH 7.2) [µM]
WT dynein (GST-Dyn1_331kD) (Saccharomyces cerevisiae S288C) | 46 ± 5 | 17.0 ± 0.5 | 
WT dynein (GST-Dyn1_331kD) (Saccharomyces cerevisiae S288C; K2424A) |  |  | 38 ± 3

— paper PMC4286497
